Assay results as given in patent publication US20250346679A1.

Biological target: mouse CD137, cell-surface (mouse) (UniProt P20334)
Assay: cell-based or functional assay

Sequence of mouse CD137, cell-surface (mouse) (P20334 24-256): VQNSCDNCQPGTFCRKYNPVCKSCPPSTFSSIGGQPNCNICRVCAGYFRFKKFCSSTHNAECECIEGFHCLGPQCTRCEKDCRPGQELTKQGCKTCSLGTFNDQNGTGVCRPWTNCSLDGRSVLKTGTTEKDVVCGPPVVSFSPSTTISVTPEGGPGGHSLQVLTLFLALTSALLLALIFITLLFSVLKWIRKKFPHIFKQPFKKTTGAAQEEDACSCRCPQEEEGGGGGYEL

+XL EC50 (nM), mouse CD137 DO11.10 T cell activation assay: 2.26 nM
+XL Emax (IL-2 pg/ml), mouse CD137 DO11.10 T cell activation assay: 21300 pg/mL
EC50 (nM), mIFN-γ release, OT-1 CD8+ T cell activation assay, with anti-hCH2: 0.36 nM
Emax (pg/ml), mIFN-γ release, OT-1 CD8+ T cell activation assay, with anti-hCH2: 17800 pg/mL
Substance: G1-AA/Lob12.3 (antibody)
